Experimental data: patent US20050191302

Target: recombinant TIMP-1 (Biogenesis, Poole, UK)

B1: recombinant human caspase-3 (Calbiochem) (protein)
chain: SGISLDNSYKMDYPEMGLCIIINNKNFHKSTGMTSRSGTDVDAANLRETFRNLKYEVRNKNDLTREEIVELMRDVSKEDHSKRSSFVCVLLSHGEEGIIFGTNGPVDLKKITNFFRGDRCRSLTGKPKLFIIQACRGTELDCGIETDSGVDDDMACHKIPVEADFLYAYSTAPGYYSWRNSKDGSWFIQSLCAMLKQYADKLEFMHILTRVNRKVATEFESFSFDATFHAKKQIPCIVSMLTKELYFYH
caspase-3 activity (colorimetric substrate assay; recombinant caspase-3 incubated with TIMP-1 at 285-2850 ng/ml for 1 hour before the substrate was added): TIMP-1 did not reduce caspase-3 activity directly (data not shown)
